# Measurements reported in patent publication US20230111102A1 (KAO, published 2023).
# Molecular target: T1, HEWL (lysozyme, derived from egg albumen, FUJIFILM Wako Pure Chemical Corporation) (UniProt P00698 19-147)
# T1 construct: Immobilised on a CM5 sensor chip by amine coupling (target 150 RU); Species is only implied by 'derived from egg albumen' and the abbreviation HEWL; also called antigen
# Assay: SPR (Biacore T200), HEWL amine-coupled to CM5 chip, 1ZVH at 8.6-700 nM as analyte, 1:1 binding model
# Procedure: The antigen-binding activity of the 1ZVH (SEQ ID NO: 38) produced by Dpr9ΔsigF was analyzed by intermolecular interaction measurement using Biacore T200 (GE Healthcare). The sensor chip used was Series S Sensor Chip CM5, and the running buffer used was HBS-EP+. HEWL (lysozyme, derived from egg albumen, FUJIFILM Wako Pure Chemical Corporation) was adjusted to 0.7 g/L with 25 mM Na phosphate pH 6.5 buffer to prepare an antigen solution. The antigen solution diluted 100-fold with an acetic acid aqueous solution (pH 4.0, 4.5, 5.0, or 5.5) to 7 μg/mL was used as substrates. As samples, 1ZVH diluted with the running buffer to 8.6 nM, 26 nM, 78 nM, 230 nM, or 700 nM was used. The following items were set or performed on the control software attached to Biacore T200 using the substrates and the samples, and the binding between the HEWL and the 1ZVH was monitored. Immobilisation pH scouting was performed to investigate the optimum pH for ill- mobilization to a sensor chip. The optimum pH condition was judged to be pH 5.5. The target was set to 150 RU with Aim for immobilized level, and lysozyme was immobilized to Flow path 2 by an amine coupling method. In Flow path 1, Blank Immobilization was performed. The binding between a substrate and a sample was monitored in Flow path 2-1. […] The kinetics were analyzed using the resulting sensor gram. […]
# T1 sequence (P00698 19-147 limits assumed): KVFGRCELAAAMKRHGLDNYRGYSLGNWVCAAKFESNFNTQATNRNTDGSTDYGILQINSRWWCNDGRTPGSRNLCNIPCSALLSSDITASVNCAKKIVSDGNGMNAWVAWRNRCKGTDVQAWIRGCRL
binder,measurement,value
"1ZVH (VHH, SEQ ID NO: 38) produced by Bacillus subtilis Dpr9ΔsigF (VHH, Secreted by Dpr9ΔsigF and purified on Ni-NTA agarose; also called the VHH (1ZVH); purified VHH) VHH: QVQLVESGGGLVQPGGSLRLSCAASGFTFSNDAMTWVRQAPGKALEWVSSITLLGGGIPYYSDTVKGRFTISRDNTKNMLYLQMNSLKPEDTAVYYCAKGFKSDYPRGQGTQVTVSS",binding result,binds
